Biological target: GST-Rac1A, active (GTPγs-bound), P34144
Assay: pull-down (GST-Rac1A), immunoblot quantification
Conditions: chain shown with the change, mean ± SEM, n = 3, parent: 1.9% ± 0.9% SEM

B1: GFP-WASP (Dictyostelium Wiskott-Aldrich syndrome protein, wild type) I173A; F179A (protein)
chain: MGSPTISDQEKSQVAFIAGSSSDIHSTTVARLYEGRQGRWEFMAVGIVSVVSNRVDKTNYIKVFDLKANYRIIFEQEIYDTFEFQKQRDFFFAFEGDSCVYGLSFADVTEAAEFYGQLLNCKQGNIGKTAAINPNTSSTKITASTPAPKVEKKKEKKGFMSKFFSSEEKDLEASAPTNAKHESHIGWDPENGFDIKNIPPDWRKLFQSAGIKKSELKNAETAQFIVNIIGEQMVGGSAPPPTQPGRSAPPAPPSSNQPGRSAPPPPPSVGKSAPPPPPPSHKTPAAPPSGGGAPPPPPPPPPPSSGPPPPPPPMASAPPSSGGGGASGGGRNDLLASIRSGASLKAVDKTNPLPDIQSLGNEGSRSLADTLAAAMANRRGGMREDDEEDDDDDDEWSDY
In the case of B1, the response (% binding to GTPγS-loaded Rac1A) is reported as 0.1.
